B1: MIA2 (parent)
chain: NSISSDKEATVPCTEILTEKKDTI
B2: INTS3 (parent)
chain: YPPLEGHVRQGVFSSLNHIVEKRV

Variants of: B1
Assay: protein stability index of a GFP-peptide fusion (GPS, HEK-293T) (PSI 1-6); higher = more stable
Details: c terminus: a fixed tail appended
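Also: lentivirally expressed fusions sorted by FACS into six bins by GFP to DsRed ratio, PSI derived from sequencing read proportions per bin multiplied by bin number.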

In order of falling protein stability index:
1. T14D  5.88
2. S5K  5.83
3. T10E  5.82
4. K7G  5.8
5. N1K  5.76
6. E8R  5.74
7. N1E  5.73
8. T10S  5.72
9. V11D  5.72
10. D6S  5.71
11. I3K  5.71
12. C13N  5.7
13. I3N  5.7
14. I3R  5.7
15. S5N  5.69
16. S4E  5.68
17. N1P  5.68
18. S4C  5.67
19. S2E  5.67
20. S5E  5.67
21. V11T  5.67
22. C13T  5.66
23. S2N  5.66
24. C13S  5.65
25. T10A  5.65
26. S4Q  5.63
27. D6E  5.63
28. P12S  5.63
29. N1S  5.62
30. K7P  5.62
31. T10D  5.61
32. I3A  5.61
33. T10N  5.6
34. I3Q  5.6
35. C13M  5.59
36. S2D  5.59
37. S5P  5.59
38. A9M  5.59
39. V11M  5.59
40. V11K  5.59
41. C13V  5.58
42. I3Y  5.58
43. C13E  5.57
44. C13Q  5.57
45. P12E  5.57
46. V11P  5.55
47. C13I  5.54
48. C13D  5.54
49. S4D  5.54
50. S2M  5.54
51. I3G  5.54
52. P12D  5.53
53. P12G  5.53
54. V11Q  5.53
55. S2A  5.52
56. E8Q  5.52
57. K7L  5.52
58. I3W  5.52
59. V11E  5.52
60. K7N  5.51
61. P12N  5.51
62. I3E  5.51
63. S4H  5.5
64. E8D  5.5
65. K7S  5.5
66. T10C  5.5
67. C13G  5.49
68. K7T  5.49
69. T14K  5.49
70. T14E  5.49
71. P12A  5.49
72. V11N  5.49
73. N1R  5.48
74. T10Q  5.48
75. T10H  5.48
76. P12T  5.48
77. S5H  5.47
78. A9K  5.47
79. P12K  5.47
80. S2V  5.46
81. S5V  5.46
82. E8S  5.46
83. E8K  5.46
84. D6A  5.45
85. T14P  5.45
86. T14H  5.45
87. E15D  5.45
88. I3M  5.45
89. I3V  5.45
90. S4Y  5.44
91. N1H  5.44
92. N1Q  5.44
93. I3D  5.44
94. S4M  5.43
95. S5Q  5.43
96. T10L  5.43
97. I3H  5.43
98. V11F  5.43
99. N1A  5.42
100. S5G  5.42
101. S5L  5.42
102. D6N  5.42
103. A9G  5.42
104. T14N  5.42
105. T14V  5.42
106. I3S  5.42
107. S4A  5.41
108. V11L  5.41
109. C13K  5.4
110. S5D  5.4
111. K7D  5.4
112. T10G  5.4
113. P12Q  5.4
114. S5T  5.39
115. T14C  5.39
116. K7H  5.38
117. A9T  5.38
118. A9P  5.38
119. P12R  5.38
120. I3F  5.38
121. V11A  5.38
122. S2F  5.37
123. S2G  5.37
124. S2L  5.37
125. E8G  5.37
126. A9F  5.36
127. T14S  5.36
128. T14A  5.36
129. I3P  5.36
130. C13P  5.35
131. S4R  5.35
132. D6P  5.35
133. P12V  5.35
134. S2Q  5.33
135. N1M  5.33
136. S5A  5.33
137. T14R  5.33
138. I3C  5.33
139. S4V  5.32
140. S2I  5.32
141. E8I  5.32
142. A9L  5.32
143. A9H  5.32
144. T10P  5.32
145. S2P  5.31
146. D6T  5.31
147. E8N  5.31
148. E8L  5.31
149. K7C  5.31
150. A9S  5.31
151. A9I  5.3
152. S4K  5.29
153. T10V  5.29
154. C13F  5.28
155. D6G  5.28
156. A9E  5.28
157. P12C  5.28
158. V11R  5.28
159. V11I  5.28
160. C13A  5.27
161. S2C  5.27
162. N1C  5.27
163. E8C  5.27
164. E8P  5.27
165. K7I  5.27
166. T10F  5.27
167. S2R  5.26
168. C13L  5.25
169. S4T  5.25
170. N1D  5.25
171. S5C  5.25
172. K7Q  5.25
173. A9Q  5.25
174. S4P  5.24
175. N1G  5.24
176. T10K  5.24
177. E15A  5.24
178. S5Y  5.23
179. S5M  5.23
180. A9R  5.23
181. V11S  5.22
182. V11W  5.22
183. S4L  5.21
184. K7E  5.21
185. T14I  5.21
186. P12M  5.21
187. D6K  5.2
188. T10I  5.2
189. S2K  5.19
190. S4N  5.18
191. S5W  5.17
192. S5I  5.17
193. E8T  5.17
194. K7Y  5.17
195. A9V  5.17
196. T10M  5.17
197. C13H  5.15
198. D6V  5.14
199. E8M  5.14
200. T14Q  5.13
201. D6Q  5.12
202. T14M  5.12
203. S4W  5.11
204. A9D  5.11
205. P12I  5.11
206. S2T  5.1
207. T14Y  5.1
208. S2H  5.09
209. N1L  5.09
210. T14G  5.09
211. E8A  5.07
212. K7A  5.07
213. K7R  5.07
214. T10W  5.07
215. V11G  5.07
216. C13W  5.06
217. D6L  5.06
218. S2W  5.05
219. N1T  5.05
220. K7W  5.05
221. A9Y  5.05
222. E15H  5.04
223. I3L  5.02
224. C13Y  5.01
225. N1V  5
226. D6M  5
227. P12H  5
228. C13R  4.99
229. E8V  4.99
230. T14L  4.99
231. S4G  4.98
232. D6I  4.98
233. E8Y  4.95
234. K7V  4.95
235. K7F  4.95
236. K7M  4.95
237. S5F  4.94
238. E8F  4.93
239. T14F  4.93
240. P12F  4.92
241. E15G  4.92
242. E15K  4.92
243. E8H  4.91
244. D6R  4.9
245. N1W  4.89
246. D6H  4.89
247. V11Y  4.89
248. A9N  4.88
249. T10R  4.85
250. D6F  4.84
251. V11C  4.84
252. N1Y  4.81
253. E15C  4.8
254. N1I  4.79
255. A9W  4.79
256. N1F  4.77
257. S4F  4.76
258. T14W  4.74
259. E8W  4.73
260. S5R  4.71
261. D6Y  4.71
262. A9C  4.71
263. S4I  4.68
264. E15M  4.68
265. I3T  4.68
266. T10Y  4.63
267. D6W  4.62
268. V11H  4.62
269. P12W  4.58
270. E15L  4.57
271. P12L  4.54
272. D6C  4.52
273. S2Y  4.49
274. E15F  4.46
275. P12Y  4.34
276. E15I  4.25

Variants of: B2
Assay: as above
Details: c terminus: a fixed tail appended

In order of falling protein stability index:
1. F13H  4.25
2. L16R  4.03
3. Y1S  3.78
4. Y1G  3.43
5. H18D  3.39
6. F13G  3.33
7. V12L  3.31
8. F13K  3.16
9. R9V  3.14
10. L4F  3.06
11. I19R  3.04
12. P3K  3.04
13. K22P  3.01
14. P3L  2.98
15. R9K  2.94
16. L4W  2.91
17. V24R  2.9
18. P3G  2.9
19. P3H  2.9
20. V8C  2.86
21. E21H  2.86
22. V8Q  2.85
23. P3C  2.78
24. G6P  2.76
25. S14A  2.75
26. K22R  2.75
27. G6S  2.73
28. Q10C  2.73
29. V20A  2.7
30. V20M  2.7
31. L4K  2.64
32. N17E  2.63
33. E21T  2.54
34. V20T  2.48
35. N17L  2.46
36. V8I  2.38
37. G6A  2.38
38. V8P  2.31
39. H7G  2.3
40. G11H  2.29
41. P3F  2.29
42. V8G  2.19
43. E5P  2.14
44. R9T  2.13
45. L16W  2.1
46. G6L  2.06
47. V24C  2.01
48. H18C  2.01
49. N17I  1.86
50. P2H  1.82
51. V8W  1.78
52. P2C  1.78
53. E5I  1.73
54. S15C  1.69
55. S15I  1.64
56. H18V  1.36
57. S15Y  1.33
58. L4E  1.08
